Assay results from US20170224836A1 (Novartis, published 2017).
Positions count from the first letter of the chain named. Read-outs that look alike come from different tables or passages of the source.

B1: NOV0710 (antibody, human IgG1, kappa, V domains shown)
VH: QVQLLESGGGLVQPGGSLRLSCAASGFTFSSYAMSWVRQAPGKGLEWVSVIRSSGSSTYYADSVKGRFTISRDNSKNTLYLQMNSLRAEDTAVYYCARGGGYFDYWGQGTLVTVSS
VL: DIQMTQSPSSLSASVGDRVTITCRASQSISLWLNWYQQKPGKAPKLLIYAASTLQSGVPSRFSGSGSGTDFTLTISSLQPEDFATYYCQQYYTSPYTFGQGTKVEIKR
B2: NOV0712-sulfo-SPDB-DM4 (antibody, human IgG1, kappa, V domains shown)
VH: QVQLLESGGGLVQPGGSLRLSCAASGFTFSSHGMHWVRQAPGKGLEWVSVISGSGSNTGYADSVKGRFTISRDNSKNTLYLQMNSLRAEDTAVYYCARQWGSYAFDSWGQGTLVTVSS
VL: DIQMTQSPSSLSASVGDRVTITCRASQSISSYLNWYQQKPGKAPKLLIYAVSTLQSGVPSRFSGSGSGTDFTLTISSLQPEDFATYYCQQSGTFPPTTFGQGTKVEIKR
modifications: sulfo-SPDB-DM4 on primary amines, sites not stated

What was measured:
[1] = target: T1, hCDH6aa54-615 APPavi (human, UniProt P55285 54-615); assay: SPR binning
T1 sequence: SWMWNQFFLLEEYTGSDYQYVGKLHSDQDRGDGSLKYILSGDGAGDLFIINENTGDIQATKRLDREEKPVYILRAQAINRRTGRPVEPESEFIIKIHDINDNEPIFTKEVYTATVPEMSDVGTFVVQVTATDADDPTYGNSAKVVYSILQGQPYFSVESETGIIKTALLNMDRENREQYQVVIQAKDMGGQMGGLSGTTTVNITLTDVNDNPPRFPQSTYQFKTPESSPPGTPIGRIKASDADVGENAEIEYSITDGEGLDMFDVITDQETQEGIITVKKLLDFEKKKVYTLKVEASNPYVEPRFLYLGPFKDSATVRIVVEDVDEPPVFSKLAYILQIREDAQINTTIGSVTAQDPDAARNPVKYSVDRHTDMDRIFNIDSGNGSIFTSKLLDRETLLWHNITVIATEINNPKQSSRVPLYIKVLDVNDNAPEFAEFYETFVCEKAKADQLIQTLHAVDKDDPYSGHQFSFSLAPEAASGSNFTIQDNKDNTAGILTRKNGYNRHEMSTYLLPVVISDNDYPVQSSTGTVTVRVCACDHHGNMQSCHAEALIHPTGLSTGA

[2] = target: T1, hCDH6aa54-615 APPavi; assay: SPR binning; remark: listed apart in the source
[3] = target: T1, hCDH6aa54-615 APPavi; assay: SPR binning; remark: listed apart in the source
[4] = target: T1, hCDH6aa54-615 APPavi; assay: SPR binning; remark: listed apart in the source
[5] = target: T1, hCDH6aa54-615 APPavi; assay: SPR binning; remark: listed apart in the source
[6] = target: T1, hCDH6aa54-615 APPavi; assay: SPR binning; remark: listed apart in the source
[7] = target: T2, CDH6 wt (human, UniProt P55285 54-615); assay: ELISA on coated CDH6-wt
T2 sequence: T1 sequence

[8] = target: T1, hCDH6aa54-615 APPavi; assay: SPR binning; remark: listed apart in the source
[9] = target: T3, human CDH6 on cells (human, UniProt P55285 54-790); assay: FACS on OVCAR8-CDH6+ cells, EC50 [M] table
T3 sequence: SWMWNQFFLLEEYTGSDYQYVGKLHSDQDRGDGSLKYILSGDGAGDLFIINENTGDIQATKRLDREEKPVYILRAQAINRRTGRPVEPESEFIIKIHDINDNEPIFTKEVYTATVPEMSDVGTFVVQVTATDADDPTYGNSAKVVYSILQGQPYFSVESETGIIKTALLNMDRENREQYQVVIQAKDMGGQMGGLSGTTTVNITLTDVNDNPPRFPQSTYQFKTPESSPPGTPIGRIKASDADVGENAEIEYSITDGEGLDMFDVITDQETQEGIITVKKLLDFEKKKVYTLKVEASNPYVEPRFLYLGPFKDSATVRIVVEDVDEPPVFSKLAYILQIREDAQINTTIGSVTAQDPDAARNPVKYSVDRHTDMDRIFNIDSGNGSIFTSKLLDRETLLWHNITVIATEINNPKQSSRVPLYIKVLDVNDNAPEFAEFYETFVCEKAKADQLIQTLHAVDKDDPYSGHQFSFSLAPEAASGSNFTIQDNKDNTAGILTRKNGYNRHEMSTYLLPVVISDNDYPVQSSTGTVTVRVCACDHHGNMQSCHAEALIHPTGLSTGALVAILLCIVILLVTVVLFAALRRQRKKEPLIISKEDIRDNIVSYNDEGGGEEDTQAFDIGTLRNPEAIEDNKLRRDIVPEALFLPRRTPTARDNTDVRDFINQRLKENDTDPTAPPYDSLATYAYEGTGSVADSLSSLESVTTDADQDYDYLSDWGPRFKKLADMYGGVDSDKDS

[10] = target: T3, human CDH6 on cells; assay: FACS on OVCAR3 cells
[11] = target: T4, rat CDH6 on cells (rat, UniProt P55280 54-789); assay: FACS on CHO-ratCDH6 cells
T4 sequence (looked up): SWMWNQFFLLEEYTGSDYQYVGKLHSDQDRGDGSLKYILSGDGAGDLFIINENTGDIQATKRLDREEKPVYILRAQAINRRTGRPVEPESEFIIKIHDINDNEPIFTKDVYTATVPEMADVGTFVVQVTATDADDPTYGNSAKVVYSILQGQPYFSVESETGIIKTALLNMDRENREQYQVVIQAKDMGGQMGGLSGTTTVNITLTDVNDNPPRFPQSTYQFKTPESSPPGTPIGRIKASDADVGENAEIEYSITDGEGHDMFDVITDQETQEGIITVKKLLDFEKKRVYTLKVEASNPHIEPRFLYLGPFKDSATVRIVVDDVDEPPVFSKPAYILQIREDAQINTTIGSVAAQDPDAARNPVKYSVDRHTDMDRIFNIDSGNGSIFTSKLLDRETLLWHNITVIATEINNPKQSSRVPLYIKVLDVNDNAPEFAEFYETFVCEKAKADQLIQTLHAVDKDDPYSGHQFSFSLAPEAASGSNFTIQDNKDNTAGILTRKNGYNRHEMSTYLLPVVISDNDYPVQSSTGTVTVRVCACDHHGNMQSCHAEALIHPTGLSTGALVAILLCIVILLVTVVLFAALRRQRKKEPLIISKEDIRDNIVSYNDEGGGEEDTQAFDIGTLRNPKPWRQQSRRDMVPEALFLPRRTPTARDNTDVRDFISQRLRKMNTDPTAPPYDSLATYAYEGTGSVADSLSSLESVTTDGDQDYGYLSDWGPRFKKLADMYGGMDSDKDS

[12] = target: T5, cynomolgus CDH6 on cells (cynomolgus, UniProt A0A2K5TW62 54-790); assay: FACS on CHO-cynoCDH6 cells
T5 sequence: T3 sequence with Y300H, H457R, A707G

[13] = target: T3, human CDH6 on cells; assay: FACS on CHO-TO-humanCDH6 cells plus tetracycline
[14] = target: T6, mouse CDH6 on cells (mouse, UniProt P97326 54-790); assay: FACS on CHO-mouseCDH6 cells
T6 sequence (looked up): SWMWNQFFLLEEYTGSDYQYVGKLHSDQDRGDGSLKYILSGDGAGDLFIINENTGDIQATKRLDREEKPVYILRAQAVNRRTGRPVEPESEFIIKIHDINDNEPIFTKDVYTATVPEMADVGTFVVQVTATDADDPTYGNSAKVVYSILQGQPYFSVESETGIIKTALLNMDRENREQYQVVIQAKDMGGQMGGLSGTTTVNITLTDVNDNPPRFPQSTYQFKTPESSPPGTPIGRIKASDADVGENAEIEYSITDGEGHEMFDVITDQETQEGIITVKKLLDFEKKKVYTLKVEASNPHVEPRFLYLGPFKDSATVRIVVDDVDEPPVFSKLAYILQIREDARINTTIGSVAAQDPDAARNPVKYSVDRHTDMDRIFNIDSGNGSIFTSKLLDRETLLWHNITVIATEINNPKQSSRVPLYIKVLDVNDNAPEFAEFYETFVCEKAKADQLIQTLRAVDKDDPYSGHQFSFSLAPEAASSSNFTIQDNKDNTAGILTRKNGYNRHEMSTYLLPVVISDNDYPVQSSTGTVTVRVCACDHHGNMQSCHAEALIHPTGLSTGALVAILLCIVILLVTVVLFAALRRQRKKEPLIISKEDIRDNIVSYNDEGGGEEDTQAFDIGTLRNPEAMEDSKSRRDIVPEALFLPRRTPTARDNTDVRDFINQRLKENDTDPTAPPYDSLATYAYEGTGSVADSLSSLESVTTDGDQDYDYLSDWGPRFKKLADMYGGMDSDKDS

| Binder | response of secondary antibody on primary antibody-CDH6 complex [1] | response of secondary antibody on primary antibody-CDH6 complex [2] | response of secondary antibody on primary antibody-CDH6 complex [3] | response of secondary antibody on primary antibody-CDH6 complex [4] | response of secondary antibody on primary antibody-CDH6 complex [5] | response of secondary antibody on primary antibody-CDH6 complex [6] | EC50 (read off the curve) [7] [nM] | response of secondary antibody on primary antibody-CDH6 complex [8] | EC50 [9] [nM] | EC50 (read off the curve) [10] [nM] | EC50 (read off the curve) [11] [nM] | EC50 (read off the curve) [12] [nM] | EC50 (read off the curve) [13] [nM] | EC50 (read off the curve) [14] [nM] |
| --- | --- | --- | --- | --- | --- | --- | --- | --- | --- | --- | --- | --- | --- | --- |
| B1 | 32.7 | -3.56 | 10.6 | 15 | 8.84 | -2.17 | ~200 | 21.9 |  |  |  |  |  |  |
| B2 |  |  |  |  |  |  |  |  | 0.715 | ~0.4 | ~0.7 | ~0.7 | ~0.5 | ~0.7 |
